{"source": "paper PMC4783143", "experiment_in_all_cases": "NMR titration", "key": {"[1]": {"molecular_target": "Cx40CT (S251-V355)"}, "[2]": {"molecular_target": "Cx43CT (S255-I382) (UniProt P08050)", "sequence (P08050 255-382)": "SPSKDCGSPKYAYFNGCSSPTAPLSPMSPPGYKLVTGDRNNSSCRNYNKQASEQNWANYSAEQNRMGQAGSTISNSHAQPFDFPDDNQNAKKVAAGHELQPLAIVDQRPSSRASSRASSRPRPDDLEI"}, "[3]": {"molecular_target": "Cx45CT (K265-I396) (UniProt P28229)", "sequence (P28229 265-396)": "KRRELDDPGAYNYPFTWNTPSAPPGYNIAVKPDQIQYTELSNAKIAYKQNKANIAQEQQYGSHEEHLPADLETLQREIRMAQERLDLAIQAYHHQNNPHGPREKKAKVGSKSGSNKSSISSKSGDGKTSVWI"}}, "data": [{"substance": "UBA domain of CIP75 (M549-S596) (from UniProt Q99NB8 549-596) (domain or fragment)", "values": [{"measurement": "Kd", "setting": "[1]", "value": 600, "unit": "µM"}, {"measurement": "Kd", "setting": "[2]", "value": 278, "unit": "µM"}, {"measurement": "Kd", "setting": "[3]", "value": 286, "unit": "µM"}]}]}
